Laboratory results from patent US20220380471A1.
Substitutions are numbered along the chain they refer to.

Legend:
mouse B7H3-His (mouse) [1] = target: T1, mouse B7H3-His (mouse) (UniProt Q8VE98); assay: ELISA; row Mouse-2 (mB7H3); well 1 of 3
T1 sequence (looked up): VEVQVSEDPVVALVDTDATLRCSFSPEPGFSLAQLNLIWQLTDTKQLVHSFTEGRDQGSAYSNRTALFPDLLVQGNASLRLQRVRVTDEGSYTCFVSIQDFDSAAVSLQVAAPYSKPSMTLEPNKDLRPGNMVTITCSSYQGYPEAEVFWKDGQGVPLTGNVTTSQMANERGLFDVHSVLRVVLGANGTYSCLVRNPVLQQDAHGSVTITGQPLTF

mouse B7H3-His (mouse) [2] = target: T1, mouse B7H3-His (mouse); assay: ELISA; row Mouse-1 (msB7H3); well 3 of 3
mouse B7H3-His (mouse) [3] = target: T1, mouse B7H3-His (mouse); assay: ELISA; row Mouse-1 (msB7H3); well 1 of 3
rat B7H3-His (rat) [4] = target: T2, rat B7H3-His (rat) (UniProt Q7TPB4); assay: phage ELISA, cross-species
T2 sequence (looked up): T1 sequence (looked up) with A33R, S62A, N131D, V156L, L214M

mouse B7H3-His (mouse) [5] = target: T1, mouse B7H3-His (mouse); assay: phage ELISA, cross-species
rat B7H3-His (rat) [6] = target: T2, rat B7H3-His (rat); assay: ELISA; row Rat; well 3 of 3
mouse B7H3-His (mouse) [7] = target: T1, mouse B7H3-His (mouse); assay: ELISA; row Mouse-2 (mB7H3); well 3 of 3
rat B7H3-His (rat) [8] = target: T2, rat B7H3-His (rat); assay: ELISA, purified VHH
rat B7H3-His (rat) [9] = target: T2, rat B7H3-His (rat); assay: ELISA; row Rat; well 1 of 3
rat B7H3-His (rat) [10] = target: T2, rat B7H3-His (rat); assay: ELISA; row Rat; well 2 of 3
mouse B7H3-His (mouse) [11] = target: T1, mouse B7H3-His (mouse); assay: ELISA; row Mouse-2 (mB7H3); well 2 of 3
mouse B7H3-His (mouse) [12] = target: T1, mouse B7H3-His (mouse); assay: ELISA; row Mouse-1 (msB7H3); well 2 of 3

B1: RWC4 (VHH)
VHH: EVQLVESGGGSVQAGGSLRLSCVASEDSTSAMCMGWFRQAPGKEREGVACINPTGEVTWYGDSVKGRFTISRDTVKKIVYLQMNSLKPEDTAMYYCAARVTYGGDWSTDTDYEYWGQGTQVTVSS
ELISA reading (name not given) (mouse B7H3-His (mouse) [1]): 0.079 | ELISA reading (name not given) (mouse B7H3-His (mouse) [2]): 0.0488 | ELISA reading (name not given) (mouse B7H3-His (mouse) [3]): 0.0616 | ELISA signal (rat B7H3-His (rat) [4]): 0.797 | ELISA signal (mouse B7H3-His (mouse) [5]): 0.366 | ELISA reading (name not given) (rat B7H3-His (rat) [6]): 0.0685 | ELISA reading (name not given) (mouse B7H3-His (mouse) [7]): 0.0468 | ELISA signal (rat B7H3-His (rat) [8]): 0.158 | ELISA reading (name not given) (rat B7H3-His (rat) [9]): 0.0683 | ELISA reading (name not given) (rat B7H3-His (rat) [10]): 0.0688 | ELISA reading (name not given) (mouse B7H3-His (mouse) [11]): 0.0498 | ELISA reading (name not given) (mouse B7H3-His (mouse) [12]): 0.0533

B2: RWB12 (VHH)
VHH: QVQLVESGGGSVQVGGSLRLSCAASGFTYNSYSVGWFRQAPGKEREGVAAINSGGSSTYYAASVKGRFTISRDNAKNTVYLQMNSLKPEDTAMYYCAARSPSPLTFQTRTLREDSYNYWGQGTQVTVSS
ELISA reading (name not given) (mouse B7H3-His (mouse) [1]): 0.0742 | ELISA reading (name not given) (mouse B7H3-His (mouse) [2]): 0.0702 | ELISA reading (name not given) (mouse B7H3-His (mouse) [3]): 0.0714 | ELISA signal (mouse B7H3-His (mouse) [5]): 1.71 | ELISA reading (name not given) (mouse B7H3-His (mouse) [7]): 0.0764 | ELISA reading (name not given) (mouse B7H3-His (mouse) [11]): 0.0771 | ELISA reading (name not given) (mouse B7H3-His (mouse) [12]): 0.0683
